B1: TPR t1 (parent)
chain: GACCAAUCUGCCCUCAGAGCUCGAGAACAUCUUCGGAUGCAGAGGAGGCAGGCUUCGGUGGCGCGAUAGCGCCAACGUCCUCAACCUCCAAUGCAUCCCACCACAUGAUGAUGCCUGAAGAGCCUUGGUUUUUUG

Variants of: B1
Assay: polymerase ribozyme fitness, log enrichment relative to wild type (log ratio); higher = more active; in vitro selection for triplet polymerase activity
In short: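 One round of in vitro selection, in triplicate, was applied to PCR-built, transcribed mutant libraries of each subunit of a heterodimeric triplet polymerase ribozyme. The steps were annealing with a biotinylated primer, partner subunit and triplets, incubation frozen at −7 °C, gel excision of extended constructs, streptavidin-bead capture and RT-PCR. Fitness is the logarithm, base 2, of genotype enrichment over wild-type enrichment from inverse-variance-weighted replicate averages of Illumina-sequenced inputs and outputs, keeping genotypes with ≥10 input reads and ≥1 read per output.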

Variant | polymerase ribozyme fitness (log ratio)
GACCAAUCUGCCCUCAGAGCUCGAGAACAUCUUCGGAUGCAGAGGAGGCUGGCUUCGGUGGCGCGAUAGCGCCAACGUCCUUAACCUCCAAUGCAUCCCACCACAUGAUGAUGCCUGAAGAGCCUUGGUUUUUUG [A50U C82U] | -1.15
GACCAAUCUGCCCUCAGAGCUCGAGAACAUCUUCGGAUGCAGAGGAGGCUGGCUUCGGUAGCGCGAUAGCGCCAACGUCCUCAACCUCCAAUGCAUCCCACCACAUGAUGAUGCCUGAAGAGGCUUGGUUUUUUG [A50U G60A C123G] | 1.09
GACCAAUCUGCCCUCAGAGCUCGAGAACAUCUUCGGAUGCAGAGGAGGCUGGCUUCGGUGGCGCGAUAGCGCCAACGUCCUCAACUUCCAAUGCAUCCCACCACAUGAUGAUGCCUGAAGAGCCUUGGUUUUUUG [A50U C86U] | -1.27
GACCAAUCUGCCCUCAGAGCUCGAGAACAUCUUCGGAUGCAGAGGAGGCUGGCUUCGGUGGCGCGAUAGUGCCAACGUCCUCAACCUCCAAUGCAUCCCACCACAUGAUGAUGCCUGAAGAGCCUUGGUUUUUUG [A50U C70U] | -1.67
GACCAAUCUGCCCUCAGAGCUCGAGAACAUCUUCGGAUGCAGAGGAGGCUUGCUUCGGUGGCGCGAUAACGCCAACGUCCUCAACCUCCAAUGCAUUCCACCACAUGAAGAUGCCUGAAGAGCCUUGGUUUUUUG [A50U G51U G69A C97U U109A] | -6.25
GACCAAUCUGCCCUCAGAGCUCGAGAACAUCUUCGGAUGCAGAGGAGGCUGGCUUCCGUGGCGCGAUAGCGCCAACGUCCUCAACCUCCAAUGCAUCCCACCACAUGAUGAUGCCUGAUGAGCCUUGGUUUUUUG [A50U G57C A119U] | -1.85
GACCAAUCUGCCCUCAGAGCUCGAGAACAUCUUCGGAUGCAGAGGAGGCUAGCUUCGGUGGCGCGAUAGCGCUAACGUCCUCAACCUCCAAUGCAUCCCACCACAUGAUGAUGCCUGAAGAGCCUUGGUUUUUUG [A50U G51A C73U] | -3.5
GACCAAUCUGCCCUCAGAGCUCGAGAACAUCUUCGGAUGCAGAGGAGGCUGGCUUCGGUAGCGCGAUAGUGCCAACGUCCUCAACCUCCAAUACAUCCCACCACAUGAUGAUGCCUGAAGAGCCUUGGUUUUUUG [A50U G60A C70U G93A] | -3.24
GACCAAUCUGCCCUCAGAGCUCGAGAACAUCUUCGGAUGCAGAGGAGGCUGGCUUCGGUGGCGUGAUAGCGCCAACGUCCUCAACCUCCAAUGCAUCCCACCACCUGAUGAUGCCUGUAGAGCCUUGGUUUUUUG [A50U C64U A105C A118U] | -4.51
GACCAAUCUGCCCUCAGAGCUCGAGAACAUCUUCGGAUGCAGAGGAGGCUGGCUUCUGUGGCGCGAUAGCGCCAACGUCCUCAACCUCCAAUGCAUCCCACCACAUGAUGAUGCCUGAAGAGCCUUGGUUUUUUG [A50U G57U] | -1.1
GACCAAUCUGCCCUCAGAGCUCGAGAACAUCUUCGGAUGCAGAGGAGGCUGGCUUCGAUGGCUCGAUAGCGCCAACGUCCUCAACCUCCAAUGCAUCCCACCACAUGAUGAUCCCUGAAGAGCCUUGGGUUUUUG [A50U G58A G63U G113C U129G] | -7.01
GACCAAUCUGCCCUCAGAGCUCGAGAACAUCUUCGGAUGCAGAGGAGGCUGGCUUCGGUGGUGCGAUAGCGCCAACGUCCUCAACCUCCAAUGCAUCCCACCACAAGAUGAUGCCUGAAGAGCCUUGGUUUUUUG [A50U C62U U106A] | -1.01
GACCAAUCUGCCCUCAGAGCUCGAGAACAUCUUCGGAUGCAGAGGAGGCUGGCUUCGGUGGCGCGAUAGCGCCAACGUCCUCAACCUCCAAUGCAUCCCACCACAUGAUGAUGCGUGAAGCGCCUUGUUUUUUUG [A50U C115G A121C G128U] | -4.2
GACCAAUCUGCCCUCAGAGCUCGAGAACAUCUUCGGAUGCAGAGGAGGCUGUCUUCGGUGGCGCGAUAGCGCCAACGUCCUCAACCGCCAAUGCAUCCCACCACAUGAUGAUGCCUGAAGAGCCUUGGUUUUUUG [A50U G52U U87G] | -2.24
GACCAAUCUGCCCUCAGAGCUCGAGAACAUCUUCGGAUGCAGAGGAGGCUGGCUUCGGUCGCGCGAUAGCGCCAACGUCCUCAACCUCCAAUGCAUCCCACCACAUGAUGAUGCCUGAAGAGACUUCGUUUCUUG [A50U G60C C123A G127C U132C] | -0.878
GACCAAUCUGCCCUCAGAGCUCGAGAACAUCUUCGGAUGCAGAGGAGGCUGGCUUCGGUGGUGCGAUAGCGCCAACGUCCUCAACCUCCAAUGCAUCCCACCACAUGAUGAUGCCUGAAGAGCCUUGGUUUUGUG [A50U C62U U133G] | -1.1
GACCAAUCUGCCCUCAGAGCUCGAGAACAUCUUCGGAUGCAGAGGAGGCUGUCUUCGGUGGCGCGAUAGCGCCAACGUCCUCAACCUCCAAUGCAUCCCACCACAUGAUGAUGCCUGAAGAGCCUUGGUUUUUUG [A50U G52U] | -2.39
GACCAAUCUGCCCUCAGAGCUCGAGAACAUCUUCGGAUGCAGAGGAGGCUGACUUCGGUGGCGCGAUAGCGCCAACGUCCUCAACCUCCAAUGCAUCCCACCACAUGAUGAUGCCUGAAGAGCCUUGGUUUUUUG [A50U G52A] | -2.66
GACCAAUCUGCCCUCAGAGCUCGAGAACAUCUUCGGAUGCAGAGGAGGCUGCCUUCGCUGGCGCGAUAGCGCUAACGUCCUCAACCUUCAAUGCAUCCCACCACAUGAUGAUGCCUGAAGAGCCUUGGUUUUUUG [A50U G52C G58C C73U C88U] | -4.53
GACCAAUCUGCCCUCAGAGCUCGAGAACAUCUUCGGAUGCAGAGGAGGCUGGCUUCAGUGGCGCGAUAGCGCCAACGUCCUCAACCUCCAAUGCAUCCCACCACAUGAUGAUGCCUGAAGAGCCUUGGUCUUUUG [A50U G57A U130C] | -1.53
GACCAAUCUGCCCUCAGAGCUCGAGAACAUCUUCGGAUGCAGAGGAGGCUGGCUUCGGUGGCGAGAUAGCGCCAACGUCCUCAACCUCCAAUGCAUCCCCCCACAUGAUGGUGCCUGAAGAGCCUUGGUUUUUUG [A50U C64A A100C A111G] | -6.26

Variant | polymerase ribozyme fitness (log ratio)
GACCAAUCUGCCCUCAGAGCUCGAGAACAUCUUCGGAUGCAGAGGAGGCUGGCUUCGGUGGCGCGAUAGCGCCAACGUCCUCAAGCUCAAAUGCAUCCCACCACAUGAUGAUGCCUGAAUAGCCUUGGUUUUUUG [A50U C85G C89A G120U] | -3.42
GACCAAUCUGCCCUCAGAGCUCGAGAACAUCUUCGGAUGCAGAGGAGGCUGGCUUCGGUGGCGCGAUAGCGCUAACGUCCUCAACCUCCAAUGCAUCCCACCACAUGAUGAUGCCUGAAGAGCCUUGGUUUUUUG [A50U C73U] | -0.956
GACCAAUCUGCCCUCAGAGCUCGAGAACAUCUUCGGAUGCAGAGGAGGCUGGCUUCGGUGGCGCGAUAGCGCCAACGUCCUCAACCUCCAAUGCAUCCCACAACAUGAUGAUGCCUGAAGAGCCUUGGUUUUUUG [A50U C102A] | -2.99
GACCAAUCUGCCCUCAGAGCUCGAGAACAUCUUCGGAUGCAGAGGAGGCUGGCUUCGGUGGCGCGAUAGCGCCAACGUCCUCAACCUCCAAUGCAUCCCACCACAUGAUGAUGCAUGAAGAGCCUUGGUUUUCUG [A50U C115A U133C] | 0.332
GACCAAUCUGCCCUCAGAGCUCGAGAACAUCUUCGGAUGCAGAGGAGGCUGGCUUCGGUGGCGCGAUAGCGCCAACGUCCUCAACCUUCAAUGCAUCCCACCACAUGAUGAUGCCUGAAGAGCCUUGGUUUUUUG [A50U C88U] | -1.71
GACCAAUCUGCCCUCAGAGCUCGAGAACAUCUUCGGAUGCAGAGGAGGCUGGCUUCGGUGGCGCGAUAGCGCUAACGUCCUCAACCACCAAUGCAUCCCACCACAUGAUGAUGCCUGAAGAGCCUUGGUUUUUUG [A50U C73U U87A] | -0.904
GACCAAUCUGCCCUCAGAGCUCGAGAACAUCUUCGGAUGCAGAGGAGGCUGGCUUCGGUGGUGCGAUAGCGCCAACGUCCUCUACCUCCAAUGCAUCCCACCACAUGAUGAUGCCUGAAGAGCCUUGGUUUUAUG [A50U C62U A83U U133A] | -1.52
GACCAAUCUGCCCUCAGAGCUCGAGAACAUCUUCGGAUGCAGAGGAGGCUGGCUUCGGUGGCGCGAUAGCGCUAACGUCCUCAACCUCCAAUGCAUCCCACCACAUGAUGAUGCCUCAAGAGACUUGGUUUUUUG [A50U C73U G117C C123A] | -5.84
GACCAAUCUGCCCUCAGAGCUCGAGAACAUCUUCGGAUGCAGAGGAGGCUGGCUUCGGUGGCGUGAUAGCGCCAACGUCCUCAACCUCCAAUGCAUCCCACCACAUGAUGGUGCCUGAAGAGCCAUGGUUUUUUG [A50U C64U A111G U125A] | -1.48
GACCAAUCUGCCCUCAGAGCUCGAGAACAUCUUCGGAUGCAGAGGAGGCUGGCUUCGGUGGCGCGAUAGCGCCAACGUCCUCAACCUCCAAUGCAUCCCACCACAUGAUGAUGCCUGAAGAGUCUUGGUUUUUUG [A50U C123U] | 0.00244
GACCAAUCUGCCCUCAGAGCUCGAGAACAUCUUCGGAUGCAGAGGAGGCUGGCUUCGGUGGCGCGAUAGCGCCAACGUCCUCAACCUCCAAUGCAUCUCACCACAUAAUGAUGCAUGAAGAGCCUUGGUUUUUUG [A50U C98U G107A C115A] | -5.98
GACCAAUCUGCCCUCAGAGCUCGAGAACAUCUUCGGAUGCAGAGGAGGCUGGCUUCGGUGGCGCGAUAGCGGCAACGUUCUCAACCUCCAAUGCAUCCCACCACAUGAUGAAGCCUGAAGAGCCUUGGUUUUUUG [A50U C72G C79U U112A] | -3.66
GACCAAUCUGCCCUCAGAGCUCGAGAACAUCUUCGGAUGCAGAGGAGGCUGGCUUCGGUAGCGCGAUAGCGCCAACGUCCUCAACCUCCAAUGCAUCCCACCACAUGAUGAUGCCUGAAGAGCCUUGGUUUUUUG [A50U G60A] | -0.0812
GACCAAUCUGCCCUCAGAGCUCGAGAACAUCUUCGGAUGCAGAGGAGGCUGGCUUCGGUCGCGCGAUAGCGCCAACGUCCUCAACCUCCAAUGCAUCCCACCACAUGAUGAUGCCUGAAGAGCCUUGGUUUUUUG [A50U G60C] | -1.06
GACCAAUCUGCCCUCAGAGCUCGAGAACAUCUUCGGAUGCAGAGGAGGCUGGCUUCGGUGGCGCGAUAGCGCCAACGUCCUCAACCUUCAAUGCAUCCCACCACAUGAUGAUGCCUGUAGAGCCUUGGUUUUUUG [A50U C88U A118U] | -0.957
GACCAAUCUGCCCUCAGAGCUCGAGAACAUCUUCGGAUGCAGAGGAGGCUGGCUUCGGUGGCGCGAUAGCGUCAACGUCCUCAACCUCCAAUGCAACCCACCACAUGAUGAAGCCUGAAGAGCCUUGGUUUUUUG [A50U C72U U96A U112A] | -1.9
GACCAAUCUGCCCUCAGAGCUCGAGAACAUCUUCGGAUGCAGAGGAGGCUGGCUUCGGUGGCGCGAUAGCGCCAACGUCCUCAACCUCCAAUGCAUCCCACCACAUGAUGAUGCUUGAAGAGCCUUGGUUUUUUG [A50U C115U] | -2.37
GACCAAUCUGCCCUCAGAGCUCGAGAACAUCUUCGGAUGCAGAGGAGGCUGGCUUCGGUGGCGCGAUAGCGCCAACGUCCUCAACCUCCAAUGCAUCCCACCACAUGAUGAUGCCUGAAGAGCGUUGGUUUUUUG [A50U C124G] | -0.185
GACCAAUCUGCCCUCAGAGCUCGAGAACAUCUUCGGAUGCAGAGGAGGCUGGCUUCGGUGGUGCGAUAGCGCCAACGUCCUCAACCUCCAAUGCAUCCCACCACAUGAAGCUGCCUGAAUGGCCUUGGUUUUUUG [A50U C62U U109A A111C G120U A121G] | -7.17
GACCAAUCUGCCCUCAGAGCUCGAGAACAUCUUCGGAUGCAGAGGAGGCUGGCUUCGGUGGCGCGAUAGCGCCAACGUCCUCAACUUCCAAUUCAUCCCACCACAUGAUGACGCCUGAAGAGCCUUGGUUUUUUG [A50U C86U G93U U112C] | -1.3
GACCAAUCUGCCCUCAGAGCUCGAGAACAUCUUCGGAUGCAGAGGAGGCUGGCUUCGGUGGCGCGAUAGCGCCAACGUCCUCAACCUCCAAUGCAUCCCAUCACUUGAUGAUGCCUGAAGUGCCUUGGUCUUUUG [A50U C101U A105U A121U U130C] | -2.62
